Assay results: US20190125929A1

Experiments:
[1] = biological target: decellularized extracellular matrix derived from TSP2 KO mouse dermal fibroblasts (mouse); test: AFM adhesion force, vWF-conjugated 2 µm bead on decellularized ECM (n=5)
[2] = biological target: decellularized extracellular matrix derived from wild-type (WT) mouse dermal fibroblasts (mouse); test: as above

adhesion force [1]: 16.5 pN
adhesion force [2]: 53.8 pN
Substance: Recombinant von Willebrand Factor (vWF) (Millipore), conjugated via EDC/NHS chemistry to a 2 µm carboxylated polystyrene bead on an AFM cantilever
